# B1: PG p53 consensus oligonucleotide (dsDNA)
# DNA 1: AATTCAGACATGCCTAGACATGCCTG
# DNA 2: CAGGCATGTCTAGGCATGTCTGAATT
# B2: TL non-specific competitor (dsDNA)
# DNA 1: TATGTCTAAGGGACCTGCGGTTGGCATTGATCTTG
# DNA 2: CAAGATCAATGCCAACCGCAGGTCCCTTAGACATA
# How the values were obtained:
# GST-RB18A-N2 = target: T1, GST-RB18A-N2 (Homo sapiens, UniProt Q15648 SEQ:1234-1566); assay: EMSA; no direct interaction with p53 oligonucleotide; conditions: tags: N-terminal GST; label: 32P; EcoRI-compatible ends
# T1 chain: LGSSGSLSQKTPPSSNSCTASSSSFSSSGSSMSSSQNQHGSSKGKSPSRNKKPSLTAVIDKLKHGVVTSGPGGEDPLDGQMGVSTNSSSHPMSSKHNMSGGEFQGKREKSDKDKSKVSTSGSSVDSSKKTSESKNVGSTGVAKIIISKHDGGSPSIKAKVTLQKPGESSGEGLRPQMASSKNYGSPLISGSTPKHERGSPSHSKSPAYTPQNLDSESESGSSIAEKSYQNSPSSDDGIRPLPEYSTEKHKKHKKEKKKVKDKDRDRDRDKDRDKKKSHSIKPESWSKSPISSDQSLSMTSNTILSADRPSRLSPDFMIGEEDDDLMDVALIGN
# Experimental: (§1) Part A: four μl of in vitro translated products of wild-type p53 (lanes 2, 5-10) or Luciferase (lanes 3-4) cDNAs were incubated for 20 min at room temperature with 0.2 μg of PAb421 (lane 5) or PAb1801 (lane 6) moAbs or with 1 μg of GST-RB18A-N2 (lanes 4, 7, 8 and 9) or GST-RB18A-Nl1 (lane 10) proteins. Then, a radiolabeled oligonucleotide (0.4 ng per lane) containing the consensus DNA binding site of p53 was added for 20 min at 4° C.
# (§2) EMSA was performed as follows. Translated product (4 μl) was pre-incubated for 20 min at room temperature with 1 μg of GST-RB18A fusion protein or 0.2 μg of moAb in a final reaction volume of 14 μl of buffer A (25 mM Tris, pH 7.4, 80 mM KCl, 0.1 mM EDTA, 1 mM DTT and 10% glycerol). Then, 6 μl of buffer B (80 mM KCl, 16.6 mM MgCl₂ and 3 mg/ml BSA) containing 0.4 ng of labeled oligonucleotide and 0.5 μg of poly(dl-dC) were added and incubation was carried out for 20 min at 4° C. Reaction products were run for 15 min at 200 V on a 4% polyacrylamide gel containing 0.4×Tris-Borate-EDTA (90 mM Tris, 64.6 mM Borate, 2.5 mM EDTA, pH 8.3).
# p53 wild-type = p53 wild-type (Homo sapiens, UniProt P04637 P04637:1-393); assay: competition; non-specific oligo did not inhibit the complex with n1; conditions: tags: none; plasmid pSP65-p53H8; chain copies: 4
# p53 wild-type, sequence (P04637 whole entry, one chain of several): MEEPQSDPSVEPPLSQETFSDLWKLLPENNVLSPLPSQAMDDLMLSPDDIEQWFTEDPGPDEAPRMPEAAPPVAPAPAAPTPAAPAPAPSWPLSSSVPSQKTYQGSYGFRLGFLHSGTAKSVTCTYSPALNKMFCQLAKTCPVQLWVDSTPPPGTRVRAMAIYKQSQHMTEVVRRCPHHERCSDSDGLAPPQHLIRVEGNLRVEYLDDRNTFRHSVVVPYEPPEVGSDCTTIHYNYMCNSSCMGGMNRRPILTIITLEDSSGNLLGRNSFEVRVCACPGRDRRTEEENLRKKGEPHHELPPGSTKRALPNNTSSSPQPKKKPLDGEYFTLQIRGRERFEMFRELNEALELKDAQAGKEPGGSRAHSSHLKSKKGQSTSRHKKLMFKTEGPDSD
# Experimental: as §1, §2
Binder,binding result (GST-RB18A-N2),binding result (p53 wild-type)
B1,no binding,
B2,,no binding

# Reference: patent publication US20040052794, “p53 regulatory protein called RB18A and uses thereof” (published 2004)
